These results are taken from patent US20240327502A1 (Merck Sharp & Dohme, published 2024).

For one experiment, the target named is T1, K312Q.
T1 construct: also called unprocessed hMPV PreF K312Q
The experiment is described as follows: ELISA; Ni-NTA plate coated with Expi293 supernatant containing the His-tagged antigen; antibody titrated; OD450. In general terms: An ELISA detects its analyte on a solid surface through an enzyme-linked reagent.

Another experiment has as its target T2, T61A, S175R, A185D.
T2 construct: also called unprocessed hMPV PreF T61A/S175R/A185D
The experiment is described as above.

In another experiment the target is T3, D296K.
T3 construct: also called unprocessed hMPV PreF D296K
Described as above.

In experiment [1] the target is T4, unprocessed hMPV PreF trimeric antigen (human metapneumovirus strain B2).
T4 construct: also called unprocessed hMPV WT PreF trimer; hMPV WT trimer
Described as above.

For experiment [2], the target named is T5, N135T G139N Y233N.
T5 construct: also called unprocessed hMPV PreF N135T/G139N/Y233N
Described as above.

The target in experiment [3] is T6, T143K.
T6 construct: also called unprocessed hMPV PreF T143K
The experiment is described as above.

The target of experiment [4] is T7, F protein of hMPV A virus (human metapneumovirus subtype A). Kind of experiment: cell-based or functional assay.
For experiment [5], the target named is T8, F protein of hMPV B virus (human metapneumovirus subtype B). The experiment is described as follows: cell-based or functional assay.
Experiment [6] deals with T7, F protein of hMPV A virus. The experiment is described as follows: cell-based or functional assay. This is another data set of the same source.
Experiment [7] has as its target T8, F protein of hMPV B virus. Kind of experiment: cell-based or functional assay. The source holds these as a separate data set.
In experiment [8] the target is T9, F protein of hMPV A MARM virus G264R/Q434H (human metapneumovirus subtype A). Kind of experiment: cell-based or functional assay.
The target in experiment [9] is T10, F protein of hMPV A MARM virus V231A/G264R (human metapneumovirus subtype A). The experiment is described as follows: cell-based or functional assay.
Experiment [10] addresses T11, F protein of hMPV A MARM virus K138Q (human metapneumovirus subtype A). Kind of experiment: cell-based or functional assay.
Experiment [11] concerns the target T9, F protein of hMPV A MARM virus …. The experiment is described as follows: cell-based or functional assay. The source holds these as a separate data set.
The target in experiment [12] is T7, F protein of hMPV A virus. Kind of experiment: cell-based or functional assay. This is another data set of the same source.
Experiment [13] has as its target T10, F protein of hMPV A MARM virus …. Kind of experiment: cell-based or functional assay. This is another data set of the same source.
For experiment [14], the target named is T11, F protein of hMPV A MARM virus K138Q. The experiment is described as follows: cell-based or functional assay. This is another data set of the same source.
Experiment [15] concerns the target T4, unprocessed hMPV PreF trimeric antigen. The experiment is described as follows: ELISA; Ni-NTA plate coated with Expi293 supernatant containing the His-tagged antigen; antibody titrated; OD450. This is another data set of the same source.
Experiment [16] concerns the target T5, N135T G139N Y233N. The description is as above. This is another data set of the same source.
Experiment [17] concerns the target T6, T143K. The experiment is described as above. This is another data set of the same source.
Experiment [18] addresses T4, unprocessed hMPV PreF trimeric antigen. The description is as above. This is another data set of the same source.
For the next experiment, the target named is T12, D414K.
T12 construct: also called unprocessed hMPV PreF D414K
Described as above.

Where two headings read alike, the source gives them in different places.

B1: M2A05 (antibody, V domains shown)
VH: QITLKESGPTLVKPTQTLTLTCTVSGFSLSANSVGVAWFRQPPGKAPEWLGVIYWDDDKRFSPSLKTRLSITKDASTSQVVLRLTNVSPLDTATYYCVRKHYDLLQWGQGAPVTVSS
VL: EIVLTQSPGTLSLSPGEGATLSCRASRSVNSDYIAWYQHKPGLAPRLLIYAASTRATDIPDRFRADVSGTDFTLTIDRLEPDDFAVYYCQQYGSAVWTFGQGTRVEVK
notes: IgG
By EC50 (read off the curve) is commonly meant the midpoint of the concentration-response curve. A lower EC50 (read off the curve) goes with an effect from little substance. As to B1, the “EC50 (read off the curve)” value was ~3 ng/mL in the experiment with K312Q; ~4 ng/mL with T61A, S175R, A185D; ~70 ng/mL in the experiment with D296K; ~4 ng/mL in [1]; ~3 ng/mL in the experiment with N135T G139N Y233N [2]; ~3 ng/mL with T143K [3]. The entries for the “PRNT IC50” value in experiment [4] and in [5] were > 10000 ng/mL and 65.7 ng/mL, respectively.

B2: M8C10 (antibody, V domains shown)
VH: QVQLVESGGGVVQPGRSLRLSCAASGFTFTTYTMHWVRQAPGKGLEWVALISSDGNNKYYADSVKGRFTISRDNSKNTLYLQMSSLRAEDTAVYYCARGYYSGGDAFDVWGQGTMVTVSS
VL: DIQMTQSPSTLSASVGDRVTITCRASQTITIWLAWYQQKPGKAPKLLIYDAVSLESGVPSRFRGSGSGTDFTLTISSLQPDDFATYYCQQYNNYPYTFGQGTKLEIKR
On to B2, for which the entries for the “PRNT IC50” value in experiment [4] and in experiment [5] were 370 ng/mL and 660 ng/mL, respectively. Besides, the “virus neutralization IC50, MPV strain A1” value in experiment [6] was 371 nM. Also, in experiment [7], the “virus neutralization IC50, MPV strain B2” value was determined as 660 nM.

B3: M4B06 (antibody, V domains shown)
VH: EVQLLESGGGFVQPGGSLRLSCVVTGFTFSNYAMCWVRQAPGKGPEWVSGIGGSVGTTYYADSVKGRFTISRDNSKNTLYLQMSGLRAEDTARYYCAKVPSFFVFEDGFDMWGQGTVVTVSS
VL: QSVLTQPPSASGNPGQRVTISCYGSGSNIGNNYVHWFRQLPGTAPRLLIYNTDILVPGVPDRFSGSESGTSASLAISGLQSGDEADYFCAAWDDTLNGYVFGPGTTVTVL
For B3, the “PRNT IC50” value in [4] was determined as 3.5 ng/mL; in experiment [5], 2.2 ng/mL. Also, the “fold reduction of neutralization potency against the MARM virus” value is 70 fold in experiment [8], 52 fold in experiment [9] and 49 fold in [10]. In addition, the “IC50, hMPV plaque reduction neutralization” value in experiment [11] was determined as 700 ng/mL; in experiment [12] it was 10.3 ng/mL; in experiment [13], 524 ng/mL; in [14], 490 ng/mL.

B4: M4B06 Fab (Fab, V domains shown)
VH: B3 VH
VL: B3 VL
With B4, the “IC50, hMPV plaque reduction neutralization” value in [12] is 76 ng/mL.

B5: M3C06 (antibody, V domains shown)
VH: QVQLVQSGAEVKKPGSSVKVSCKAYGGTLSNYAISWVRQAPGQGLHWMGRIIPVMNVANYADNFQGRVTITADKSTSTAYMELSSLRSEDAAIYYCATARGLGSLEGGDAFDVWGQGTMLTVSS
VL: DIVMTQSPDSVAVSLGERATISCKSSLSLLYSSNNKNYLVWYQQKPGQPPKLLFYWASTRESGVPDRFSASGSGTDFTLTISSLQAEDVAVYYCQQYYSTPITFGQGTRLEIR
notes: IgG
As to B5, the “PRNT IC50” value in experiment [4] was > 10000 ng/mL; in experiment [5], 61.7 ng/mL. Moreover, in experiment [15], the “EC50 (read off the curve)” value was ~9 ng/mL. Besides, the binding result with N135T G139N Y233N [16] is on record as “binds”; with T143K [17], “no binding (tested: about 3000 ng/mL)”.

B6: M1A04 (antibody, V domains shown)
VH: EVQLVESGGGLVRPGGSLRLSCAASGFNVRNYYMSWVRQAPGKGLEWISVIYGGGTTFYAGSVKGRFTISRDDSKSTLFLQMNSLRADDTAVYYCARDPGTVMSTENLQGMDVWGQGTTVTVSS
VL: DIQMTQSPSSLSASVGDRVTITCRASQTIRSYLNWYQQKPGKAPNLLIYAATSLQSGVPSRFSGSGSGTDFTLTISSLQPEDSATYYCQQSFSTLYSFGQGTRLEIK
notes: IgG
B6: in experiment [18], the 50% effective concentration (EC50 (read off the curve)) was ~5 ng/mL. In addition, the binding result with D414K was “binds”. Further, the “PRNT IC50” value in experiment [4] amounted to 87.2 ng/mL; in experiment [5], 128 ng/mL.

B7: M4A10 (antibody, V domains shown)
VH: QVQLVQSGAEVKKPGASVKVSCKASGYTFNGHYLHWVRQAPGQGLEWMGWINPNSGGTDYAQRFQGRVTMTRGTSISTAYMELSRLTSDDTAVYFCARDNFGFWSASSGRHNWLDSWGQGTLVIVSS
VL: NFMLTQPHSVSESPGKTVTISCTRSTGNIASNYVQWYQQRPGSSPTTVIYEDNQRPSAVPDRFSGSIDSSSNSASLTVSGLRTEDEADYYCQSYDSGHHVVFGGGTKLTVL
notes: IgG
For B7, the “PRNT IC50” value is > 10000 ng/mL in experiment [4] and 30.1 ng/mL in experiment [5]. The “EC50 (read off the curve)” value is ~6 ng/mL in experiment [15] and ~2 ng/mL with T143K [17]. Besides, in the experiment with N135T G139N Y233N [16], the binding result is “binds”.
